First the molecules themselves.
B1: TUCAN fragment lacking the CARD (residues 1-337) (other)
chain: MMRQRQSHYCSVLFLSVNYLGGTFPGDICSEENQIVSSYASKVCFEIEEDYKNRQFLGPEGNVDVELIDKSTNRYSVWFPTAGWYLWSATGLGFLVRDEVTVTIAFGSWSQHLALDLQHHEQWLVGGPLFDVTAEPEEAVAEIHLPHFISLQGEVDVSWFLVAHFKNEGMVLEHPARVEPFYAVLESPSFSLMGILLRIASGTRLSIPITSNTLIYYHPHPEDIKFHLYLVPSDALLTKAIDDEEDRFHGVRLQTSPPMEPLNFGSSYIVSNSANLKVMPKELKLSYRSPGEIQHFSKFYAGQMKEPIQLEITEKRHGTLVWDTEVKPVDLQLVAAS
notes: also called ΔCARD; ΔCARD fragment of TUCAN

The target in assay [1] is T1, TUCAN (Tumor Up-regulated CARD-containing Antagonist of Caspase Nine), full-length (Homo sapiens (Human), UniProt Q9Y2G2 131-537).
T1 construct: Full-length TUCAN expressed by transient transfection in HEK293T cells; also called full-length TUCAN; CARD-X
T1 sequence: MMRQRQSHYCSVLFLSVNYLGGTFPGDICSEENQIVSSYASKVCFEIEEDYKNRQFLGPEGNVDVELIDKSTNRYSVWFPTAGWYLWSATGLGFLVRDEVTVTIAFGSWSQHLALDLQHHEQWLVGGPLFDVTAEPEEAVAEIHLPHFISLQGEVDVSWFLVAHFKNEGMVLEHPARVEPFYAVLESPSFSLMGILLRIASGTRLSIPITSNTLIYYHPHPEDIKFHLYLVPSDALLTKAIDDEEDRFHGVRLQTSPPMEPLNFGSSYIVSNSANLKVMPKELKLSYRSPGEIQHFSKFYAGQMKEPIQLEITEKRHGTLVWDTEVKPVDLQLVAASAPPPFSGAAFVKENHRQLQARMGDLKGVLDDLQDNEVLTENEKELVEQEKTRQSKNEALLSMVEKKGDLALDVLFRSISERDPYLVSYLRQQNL
The assay can be described thus: co-immunoprecipitation with HA- and Myc-tagged proteins.

In assay [2] the target is T1, TUCAN (Tumor Up-regulated …). The assay can be described thus: co-immunoprecipitation, transfected HEK293T cells, SDS-PAGE/immunoblot. Background: Immunoblotting shows a protein as a band on a membrane.
Assay [3] has as its target B1. The experiment in a line: co-immunoprecipitation, transfected cells, SDS-PAGE/immunoblot.

For the molecule B1, in assay [1], the binding result is “no binding”.

B2: pro-Caspase-1 (enzyme, UniProt P29466 1-404, looked up)
chain: MADKVLKEKRKLFIRSMGEGTINGLLDELLQTRVLNKEEMEKVKRENATVMDKTRALIDSVIPKGAQACQICITYICEEDSYLAGTLGLSADQTSGNYLNMQDSQGVLSSFPAPQAVQDNPAMPTSSGSEGNVKLCSLEEAQRIWKQKSAEIYPIMDKSSRTRLALIICNEEFDSIPRRTGAEVDITGMTMLLQNLGYSVDVKKNLTASDMTTELEAFAHRPEHKTSDSTFLVFMSHGIREGICGKKHSEQVPDILQLNAIFNMLNTKNCPSLKDKPKVIIIQACRGDSPGVVWFKDSVGVSGNLSLPTTEEFEDDAIKKAHIEKDFIAFCSSTPDNVSWRHPTMGSVFIGRLIEHMQEYACSCDVEEIFRKVRFSFEQPDGRAQMPTTERVTLTRCFYLFPGH
Turning to B2, the binding result in assay [2] was “no binding”.

B3: pro-caspase-9 inactive mutant (Cys287/Ala) (enzyme)
chain: MDEADRRLLRRCRLRLVEELQVDQLWDALLSSELFRPHMIEDIQRAGSGSRRDQARQLIIDLETRGSQALPLFISCLEDTGQDMLASFLRTNRQAAKLSKPTLENLTPVVLRPEIRKPEVLRPETPRPVDIGSGGFGDVGALESLRGNADLAYILSMEPCGHCLIINNVNFCRESGLRTRTGSNIDCEKLRRRFSSPHFMVEVKGDLTAKKMVLALLELAQQDHGALDCCVVVILSHGCQASHLQFPGAVYGTDGCPVSVEKIVNIFNGTSCPSLGGKPKLFFIQAAGGEQKDHGFEVASTSPEDESPGSNPEPDATPFQEGLRTFDQLDAISSLPTPSDIFVSYSTFPGFVSWRDPKSGSWYVETLDDIFEQWAHSEDLQSLLLRVANAVSVKGIYKQMPGCFNFLRKKLFFKTS
For the molecule B3, the binding result in assay [3] is on record as “no binding”.

B4: Bcl10 (CIPER; huE10) (other, UniProt O95999 1-233, looked up)
chain: MEPTAPSLTEEDLTEVKKDALENLRVYLCEKIIAERHFDHLRAKKILSREDTEEISCRTSSRKRAGKLLDYLQENPKGLDTLVESIRREKTQNFLIQKITDEVLKLRNIKLEHLKGLKCSSCEPFPDGATNNLSRSNSDESNFSEKLRASTVMYHPEGESSTTPFFSTNSSLNLPVLEVGRTENTIFSSTTLPRPGDPGAPPLPPDLQLEEEGTCANSSEMFLPLRSRTVSRQ
Turning to B4, in assay [2], the binding result is recorded as “no binding”.
